From the supplement of paper PMC10567573
± gives the standard deviation.

Experiment: protein stability index of a GFP-peptide fusion (GPS, HEK-293T) (PSI 1-6); higher = more stable
Conditions: c terminus: a fixed tail appended
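Note: 24-mer peptide tiles fused after GFP, lentivirally expressed, FACS-sorted into six equal bins by GFP/DsRed ratio, decoded by Illumina sequencing, PSI is the read-weighted mean bin number.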

RERFMECLMIGRDLVRLLQNVARI [INTS3]
protein stability index (treatment: DMSO): 2.31 ± 0.28 | protein stability index (treatment: MLN4924 1 uM, 8 h): 2.54 ± 0.31

RKPGMSSTARRSRAASSQRAEEED [CHMP4C]
protein stability index (treatment: DMSO): 5.38 ± 0.17 | protein stability index (treatment: MLN4924 1 uM, 8 h): 5.41 ± 0.25

AAPGALGSLHAGGARLVAACSAWL [AUH]
protein stability index (treatment: DMSO): 2.65 ± 0.047 | protein stability index (treatment: MLN4924 1 uM, 8 h): 2.39 ± 0.34

LYPNPRERSSFYSCAGGRLFQQSC [CHIT1]
protein stability index (treatment: DMSO): 1.94 ± 0.21 | protein stability index (treatment: MLN4924 1 uM, 8 h): 2.37 ± 0.43

QLLLQFERLVVLDYIIRNTDRGND [PI4K2A]
protein stability index (treatment: DMSO): 2.98 ± 0.47 | protein stability index (treatment: MLN4924 1 uM, 8 h): 2.64 ± 0.36

ASSASLEPMWSGSTMRRMALRPTA [EMID1]
protein stability index (treatment: DMSO): 3.43 ± 0.23 | protein stability index (treatment: MLN4924 1 uM, 8 h): 3.64 ± 0.43

SVNEHTEEGESLLCLACSAGYYEL [ANKRD17]
protein stability index (treatment: DMSO): 2.64 ± 0.38 | protein stability index (treatment: MLN4924 1 uM, 8 h): 2.93 ± 0.29

KSPPQLRQFLPEEFMKTLEKTGPQ [DENND6A]
protein stability index (treatment: DMSO): 4.63 ± 0.3 | protein stability index (treatment: MLN4924 1 uM, 8 h): 4.43 ± 0.32

QYQYERYGAVELSGAGRRKNATRE [IRX6]
protein stability index (treatment: DMSO): 4.5 ± 0.39 | protein stability index (treatment: MLN4924 1 uM, 8 h): 4.54 ± 0.32

GSNEYTEGPSVVKRPAPRTAPRQE [SPRY1]
protein stability index (treatment: DMSO): 4.9 ± 0.28 | protein stability index (treatment: MLN4924 1 uM, 8 h): 5.3 ± 0.17

RKLSQGILIIRFEMPYNIWCDGCK [YJU2B]
protein stability index (treatment: DMSO): 2.57 ± 0.62 | protein stability index (treatment: MLN4924 1 uM, 8 h): 3.3 ± 0.79

NVSVMHKSLDNMPNDEHWKALSRK [FBXO33]
protein stability index (treatment: DMSO): 4.19 ± 0.089 | protein stability index (treatment: MLN4924 1 uM, 8 h): 4.03 ± 0.14

FERLCLTWMFFFMMCVAERTYKQR [PHTF1]
protein stability index (treatment: DMSO): 2.82 ± 0.54 | protein stability index (treatment: MLN4924 1 uM, 8 h): 3.3 ± 0.49
